Test results reported in patent US20190330360A1 (IGM BIOSCIENCES, published 2019).

T1: GITR on activated human T cells (human, UniProt Q9Y5U5 26-241)
T1 construct: also called GITR on CD4 T cells
T1 sequence: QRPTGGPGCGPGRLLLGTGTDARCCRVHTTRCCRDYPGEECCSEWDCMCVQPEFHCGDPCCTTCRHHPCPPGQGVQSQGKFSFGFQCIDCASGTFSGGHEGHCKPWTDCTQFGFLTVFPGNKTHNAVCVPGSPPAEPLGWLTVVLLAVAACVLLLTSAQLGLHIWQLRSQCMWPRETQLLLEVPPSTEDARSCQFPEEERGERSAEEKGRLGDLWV

B1: Anti-GITR IgG #2 (antibody, V domains shown)
VH: QVQLVESGGGVVQPGRSLRLSCAASGFTFSSYGMHWVRQAPGKGLEWVAVIWYEGSNKYYADSVKGRFTISRDNSKNTLYLQMNSLRAEDTAVYYCARGGSMVRGDYYYGMDVWGQGTTVTVSS
VL: AIQLTQSPSSLSASVGDRVTITCRASQGISSALAWYQQKPGKAPKLLIYDASSLESGVPSRFSGSGSGTDFTLTISSLQPEDFATYYCQQFNSYPYTFGQGTKLEIK
notes: VH and VL put into IgG format; Detected with anti-human kappa; also called Anti-GITR #2 IgG; Anti-GITR #2 (IgG format)
B2: Anti-GITR IgG #1 (antibody, V domains shown)
VH: QVQLVESGGGVVQPGRSLRLSCAASGFTFSSYGMHWVRQAPGKGLEWMAVIWYVGSNKYYADSVKGRFTISRDNSKNTLYLQMNSLRAEDTAVYYCARGGELGRDYYSGMDVWGQGTTVTVSS
VL: DIQMTQSPSSLSASVGDRVTITCRASQGIRNDLGWYQQKPGKAPKRLIYAASSLQSGVPSRFSGSGSGTEFTLTISSLQPEDFATYYCQQHNSYPWTFGQGTKVEIKR
notes: VH and VL put into IgG format; Detected with anti-human kappa; also called Anti-GITR #1 IgG; Anti-GITR #1 (IgG format)

Target: T1, GITR on activated human T cells
Experiment: flow cytometry, binding dose response on activated human T cells
Experimental: To assess the ability of IgG and IgM antibodies to bind GITR on activated T cells, a binding assay was performed by the following method. Tissue culture plates were coated with 5 μg/mL of anti-CD3 (eBioscience #16-0037-85) at 4° C. overnight, then washed 2 times with PBS. Purified human CD3 T cells (Astarte Biologics) were seeded at 0.1×10⁶ cells/well and incubated with 2 μg/mL of soluble anti-CD28 (Invitrogen #16-0289-85) for 4 days at 37° C. Cells were washed with FACS Stain Buffer (BD Pharmigen Catalog #554656) and 1×10⁵ cells were stained with serial dilutions of anti-GITR antibodies, 5 μg/mL IgG isotype control (Jackson ImmunoResearch #009-000-003), or 5 μg/mL IgM isotype control (Jackson ImmunoResearch #009-000-012) for 30 minutes at 4° C. Cells were washed twice, then stained for 30 minutes at 4° C. with 5 μg/mL anti-human kappa-AF488 secondary antibody (Biolegend #316512), and anti-human CD4-APC (BD Biosciences #555349) and anti-human CD25-PerCP (Biolegend #356111) for immunophenotyping. Cells were washed twice, resuspended in FACS Stain Buffer, and acquired by flow cytometry. The results are shown in FIG. 3A (Anti-GITR IgG and IgM #1) and FIG. 3B (Anti-GITR IgG and IgM #2). Filled histograms, Isotype controls; Open histograms, Anti-GITR antibodies. All the constructs bound to the activated T cells.

Binder | binding result
B1 | binds
B2 | binds
